How the values were obtained:
[1] = biological target: T1, human FcγRIIb extracellular domain with C-terminal His-tag (human, UniProt P31994 43-217); test: SPR; FcγRIIb at 1000 nM, bound amount per unit captured Ab
T1 construct: extracellular domain; also called hFcγR IIb
T1 sequence (looked up): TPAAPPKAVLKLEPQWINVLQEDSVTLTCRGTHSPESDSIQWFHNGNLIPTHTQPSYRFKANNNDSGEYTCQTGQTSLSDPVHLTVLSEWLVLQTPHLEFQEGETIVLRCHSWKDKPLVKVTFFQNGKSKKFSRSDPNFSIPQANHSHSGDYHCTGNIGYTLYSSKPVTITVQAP
Experimental: (§1) The interaction between the generated antibodies and human FcγRs was analyzed by the following method using Biacore T200. 50 mM Na-Phosphate, 150 mM NaCl, 0.05% Tween20 (pH 7.4) was used as the running buffer, and the assay was performed at 25° C. For the sensor chips, Series S SA (GE Healthcare) chips onto which CaptureSelect Human Fab-lambda Kinetics Biotin Conjugate (Thermo Fisher Scientific) was immobilized were used. The antibodies of interest were captured onto these chips and each FcγR diluted in the running buffer was allowed to interact with them. Chips were regenerated with 10 mM Glycine-HCl (pH 1.5) and 25 mM NaOH, and assay was performed by repeatedly capturing antibodies. The dissociation constants KD (mol/L) for FcγRs of each antibody were calculated using Biacore T200 Evaluation Software 2.0, using the 1:1 Langmuir binding model for FcγRIa and FcγRIIIa and the steady state affinity model for FcγRIIa. For FcγRIIb, the binding amount of FcγRIIb per unit amount of antibody was calculated by correcting the binding amount of FcγRIIb obtained from the sensorgram obtained by the measurement with the amount of antibody captured onto the chip surface.

[2] = biological target: T2, human FcγRIIa H allotype extracellular domain with C-terminal His-tag (human, UniProt P12318 34-217); test: SPR; KD of 04H1637-G1m/04L1610-lam1 divided by KD of variant;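 note: biacore T200 SPR at 25 °C, antibodies captured on anti-Fab-lambda SA chip with receptor as analyte, running buffer pH 7.4 for FcγRs and pH 6.0 for FcRn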
T2 construct: extracellular domain; also called hFcγR IIa H
T2 sequence (looked up): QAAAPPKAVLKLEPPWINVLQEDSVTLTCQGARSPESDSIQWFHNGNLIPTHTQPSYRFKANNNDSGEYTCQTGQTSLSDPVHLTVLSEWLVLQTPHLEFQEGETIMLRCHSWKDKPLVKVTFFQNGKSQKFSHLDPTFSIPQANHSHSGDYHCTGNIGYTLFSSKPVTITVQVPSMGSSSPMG

[3] = biological target: T3, human FcγRIa extracellular domain with C-terminal His-tag (human, UniProt P12314 16-292); test: as above
T3 construct: extracellular domain; also called hFcγR Ia; hFcγRIa
T3 sequence (P12314 16-292): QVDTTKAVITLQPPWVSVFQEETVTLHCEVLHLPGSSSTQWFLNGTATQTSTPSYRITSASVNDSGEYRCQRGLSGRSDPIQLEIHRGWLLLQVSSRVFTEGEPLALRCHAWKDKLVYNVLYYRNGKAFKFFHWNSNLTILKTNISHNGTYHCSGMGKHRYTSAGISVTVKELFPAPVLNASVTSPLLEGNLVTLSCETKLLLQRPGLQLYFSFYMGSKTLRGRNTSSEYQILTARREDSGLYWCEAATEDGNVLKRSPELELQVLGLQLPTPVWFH

[4] = biological target: T4, human FcγRIIIa V allotype extracellular domain with C-terminal His-tag (human, UniProt P08637 17-208); test: as above
T4 construct: extracellular domain; also called hFcγR IIIa V
T4 sequence (P08637 17-208 F176V): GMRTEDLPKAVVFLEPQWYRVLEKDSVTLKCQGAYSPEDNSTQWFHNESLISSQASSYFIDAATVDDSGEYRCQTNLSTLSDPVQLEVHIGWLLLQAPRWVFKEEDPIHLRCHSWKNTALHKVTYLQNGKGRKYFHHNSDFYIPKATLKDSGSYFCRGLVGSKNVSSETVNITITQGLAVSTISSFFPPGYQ

[5] = biological target: T5, human FcγRIIa R allotype extracellular domain with C-terminal His-tag (human, UniProt P12318 34-217); test: as above
T5 construct: extracellular domain; also called hFcγR IIa R
T5 sequence (looked up): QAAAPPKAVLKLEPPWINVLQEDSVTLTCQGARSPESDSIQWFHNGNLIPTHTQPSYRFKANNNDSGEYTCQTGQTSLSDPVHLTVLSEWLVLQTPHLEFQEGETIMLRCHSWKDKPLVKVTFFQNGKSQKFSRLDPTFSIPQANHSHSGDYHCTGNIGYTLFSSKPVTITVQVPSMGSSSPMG

[6] = biological target: T6, human FcγRIIIa F allotype extracellular domain with C-terminal His-tag (human, UniProt P08637 17-208); test: as above
T6 construct: extracellular domain; also called hFcγR IIIa F
T6 sequence (P08637 17-208): as the sequence (P08637 17-208 F176V) above, with V160F counted along it

[7] = biological target: T1, human FcγRIIb extracellular domain with …; test: SPR; binding amount divided by that of 04H1637-G1m/04L1610-lam1
[8] = biological target: T2, human FcγRIIa H allotype extracellular …; test: SPR Biacore T200, Ab captured via Fab-lambda, pH 7.4, 25C;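 note: antibodies captured on a streptavidin chip carrying biotinylated anti-Fab-lambda, with each FcγR injected as analyte in phosphate buffer. KD fitted by 1:1 Langmuir or steady-state model depending on receptor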
Experimental: as §1

[9] = biological target: T3, human FcγRIa extracellular domain with …; test: as above
Experimental: as §1

[10] = biological target: T4, human FcγRIIIa V allotype extracellular …; test: as above
Experimental: as §1

[11] = biological target: T5, human FcγRIIa R allotype extracellular …; test: as above
Experimental: as §1

[12] = biological target: T6, human FcγRIIIa F allotype extracellular …; test: as above
Experimental: as §1

[13] = biological target: T7, human FcγRIIa H extracellular domain (human, UniProt P12318 34-217); test: SPR Biacore 8K+; KD for FcγRIIb divided by KD for this FcγR;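 note: antibodies captured on an anti-human Fab kappa SA chip with soluble human FcγR ectodomains flowed over, FcγRIIb KD from steady-state fit, other FcγR KD from Langmuir model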
T7 construct: extracellular domain; also called hFcγR IIa H
T7 sequence (looked up): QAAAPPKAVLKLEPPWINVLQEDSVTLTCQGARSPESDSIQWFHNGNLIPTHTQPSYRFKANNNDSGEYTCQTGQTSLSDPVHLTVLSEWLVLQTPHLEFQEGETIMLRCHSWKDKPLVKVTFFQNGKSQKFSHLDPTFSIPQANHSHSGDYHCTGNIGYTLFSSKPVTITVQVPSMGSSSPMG
Experimental: (§2) The interaction between the produced antibodies and human FcγRs was analyzed using Biacore 8K+ by the method below. For the running buffer, 50 mM Na-Phosphate, 150 mM NaCl, and 0.05% Tween20 (pH 7.4) was used, and measurement was performed at 25° C. The sensor chip used was a Series S SA chip (GE Healthcare) onto which CaptureSelect Human Fab-kappa Kinetics Biotin Conjugate (Thermo Fisher Scientific) was immobilized. An antibody of interest was captured onto this chip, and each FcγR diluted with the running buffer was allowed to interact with it. The chip was regenerated using 10 mM Glycine-HCl (pH 1.5), and repeatedly used to capture antibodies and perform measurement. The dissociation constants KD (mol/L) of each antibody for FcγRs were calculated using Biacore Insight Evaluation Software, with a steady state affinity model for the dissociation constant for FcγRIIb and a 1:1 Langmuir binding model for the dissociation constants for the other FcγRs (Table 48).

[14] = biological target: T8, human FcγRIIIa V extracellular domain (human, UniProt P08637 17-208); test: as above
T8 construct: extracellular domain; also called hFcγR IIIa V
T8 sequence (P08637 17-208 F176V limits assumed): as the sequence (P08637 17-208 F176V) above
Experimental: as §2

[15] = biological target: T9, human FcγRIIIa F extracellular domain (human, UniProt P08637 17-208); test: as above
T9 construct: extracellular domain; also called hFcγR IIIa F
T9 sequence (P08637 17-208): as the sequence (P08637 17-208 F176V) above, with V160F counted along it
Experimental: as §2

[16] = biological target: T10, human FcγRIIa R extracellular domain (human, UniProt P12318 34-217); test: as above
T10 construct: extracellular domain; also called hFcγR IIa R
T10 sequence (looked up): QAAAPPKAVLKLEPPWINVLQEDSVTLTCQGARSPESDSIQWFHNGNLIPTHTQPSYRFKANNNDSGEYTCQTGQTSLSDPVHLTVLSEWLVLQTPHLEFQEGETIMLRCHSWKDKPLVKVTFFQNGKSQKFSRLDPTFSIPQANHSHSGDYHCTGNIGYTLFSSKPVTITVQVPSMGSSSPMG
Experimental: as §2

[17] = biological target: T7, human FcγRIIa H extracellular domain; test: SPR Biacore 8K+; KD of G1d divided by KD of this antibody;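 note: antibodies captured on an anti-Fab-kappa streptavidin chip, soluble FcγR ectodomains flowed over, KD by steady-state fit for FcγRIIb and Langmuir kinetic model for the other receptors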
Experimental: as §2

[18] = biological target: T8, human FcγRIIIa V extracellular domain; test: as above
Experimental: as §2

[19] = biological target: T9, human FcγRIIIa F extracellular domain; test: as above
Experimental: as §2

[20] = biological target: T11, human FcγRIa extracellular domain (human, UniProt P12314 16-292); test: as above
T11 construct: extracellular domain; also called hFcγR Ia; hFcγRIa
T11 sequence (P12314 16-292): as the sequence (P12314 16-292) above
Experimental: as §2

[21] = biological target: T12, human FcγRIIb extracellular domain (human, UniProt P31994 43-217); test: as above
T12 construct: extracellular domain; also called hFcγR IIb
T12 sequence (looked up): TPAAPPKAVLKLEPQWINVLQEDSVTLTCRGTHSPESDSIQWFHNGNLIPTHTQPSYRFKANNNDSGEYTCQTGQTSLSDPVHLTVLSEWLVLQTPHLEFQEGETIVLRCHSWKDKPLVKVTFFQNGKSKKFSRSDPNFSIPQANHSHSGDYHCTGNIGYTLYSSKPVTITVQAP
Experimental: as §2

[22] = biological target: T10, human FcγRIIa R extracellular domain; test: as above
Experimental: as §2

[23] = biological target: T12, human FcγRIIb extracellular domain; test: SPR Biacore 8K+, antibody captured, FcγR as analyte, steady state affinity model
Experimental: as §2

[24] = biological target: T7, human FcγRIIa H extracellular domain; test: SPR Biacore 8K+, antibody captured, FcγR as analyte, 1:1 Langmuir model;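 note: antibodies captured on a streptavidin chip through a biotinylated anti-human Fab kappa reagent, with FcγR extracellular domains injected in pH 7.4 phosphate buffer at 25 °C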
Experimental: as §2

[25] = biological target: T8, human FcγRIIIa V extracellular domain; test: as above
Experimental: as §2

[26] = biological target: T9, human FcγRIIIa F extracellular domain; test: as above
Experimental: as §2

[27] = biological target: T11, human FcγRIa extracellular domain; test: as above
Experimental: as §2

[28] = biological target: T10, human FcγRIIa R extracellular domain; test: as above
Experimental: as §2

B1: 04H1637-Kn462/04L1610-lam1//04H1637-Hl441/04L1610-lam1 (antibody, human IgG1, lambda)
heavy 1: QVQLVESGGGLVKPGGSLRLSCAASGFTFSSKTMNWVRQAPGKGLEWVSSISTQSHYIYYAESVRGRFTISRDNAKNSLYLQMNSLRAEDTAVYYCARYGKREDMLWVFDYWGQGTLVTVSSASTKGPSVFPLAPSSKSTSGGTAALGCLVKDYFPEPVTVSWNSGALTSGVHTFPAVLQSSGLYSLSSVVTVPSSSLGTQTYICNVNHKPSNTKVDKKVEPKSCDKTHTCPPCPAPEFQWGPMVFLFPPKPKDVLMISRTPEVTCVVVDVSDEEPEVKFNWYVDGVEVHNAKTKPREEQYNATYRVVSVLPVLHQDWLNGKEYKCKVSNDALPAPIEKTISKAKGQPREPQVCTLPPSRDELTKNQVSLWCLVKGFYPSDIAVEWESNGQPENNYKTTPPVLDSDGSFFLYSKLTVDKSRWQQGNVFSCSVMHEALHNHYTQKSLSLSP
heavy 2: QVQLVESGGGLVKPGGSLRLSCAASGFTFSSKTMNWVRQAPGKGLEWVSSISTQSHYIYYAESVRGRFTISRDNAKNSLYLQMNSLRAEDTAVYYCARYGKREDMLWVFDYWGQGTLVTVSSASTKGPSVFPLAPSSKSTSGGTAALGCLVKDYFPEPVTVSWNSGALTSGVHTFPAVLQSSGLYSLSSVVTVPSSSLGTQTYICNVNHKPSNTKVDKKVEPKSCDKTHTCPPCPAPELLAGPSVFLFPPKPKDVLMISRTPEVTCVVVDVSHEEPEVKFNWYVDGVEVHNAKTKPREEQYNATYRVVSVLPVLHQDWLNGKEYKCKVSNDALPAPIEETISKAKGQPREPQVYTLPPSRCELTKNQVSLSCAVKGFYPSDIAVEWESNGQPENNYKTTPPVLDSDGSFFLVSKLTVDKSRWQQGNVFSCSVMHEALHNHYTQKSLSLSP
light: QSALTQPPSASGSPGQSVTISCEGPSTGVGDYNWVHWYQQHPGKAPKLMIYFTSKKPSGVPDRFSGSKSGNTASLTVSGLQAEDEADYYCQTYAAPLGPMFGGGTKLTVLGQPKAAPSVTLFPPSSEELQANKATLVCLISDFYPGAVTVAWKADSSPVKAGVETTTPSKQSNNKYAASSYLSLTPEQWKSHRSYSCQVTHEGSTVEKTVAPTECS
notes: Heterodimerized antibody; also called 04H1637-Kn462/04L1610-lam1//04H1637-H1441/04L1610-lam1
[1]
  Binding amount: 0.013
[2]
  Relative value to KD between G1m and hFcγRs: 20.9
[3]
  Relative value to KD between G1m and hFcγRs: 0.3
[4]
  Relative value to KD between G1m and hFcγRs: 45.8
[5]
  Relative value to KD between G1m and hFcγRs: 9.2
[6]
  Relative value to KD between G1m and hFcγRs: 79.5
[7]
  Relative binding amount: 1.6
[8]
  Kd: 70 nM
[9]
  Kd: 0.15 nM
[10]
  Kd: 5.2 nM
[11]
  Kd: 220 nM
[12]
  Kd: 17 nM

B2: H240-Kn032/L73-k0//H240-Hl032/L73-k0 (antibody)
heavy 1: QDQLVQSGAEVKKPGASVKVSCKASGFNIKDTYIQWVRQAPGQGLEWMGRIDPLRKQTKYREKFEGRVTITADTSTNTAYMELSSLRSEDTAVYYCVRSGREFDYWGQGTLVTVSSASTKGPSVFPLAPSSKSTSGGTAALGCLVKDYFPEPVTVSWNSGALTSGVHTFPAVLQSSGLYSLSSVVTVPSSSLGTQTYICNVNHKPSNTKVDKKVEPKSCDKTHTCPPCPAPELLGGPDVFLFPPKPKDTLMISRTPEVTCVVVDVSHEDPEVKFNWYVDGVEVHNAKTKPREEQYNSTYRVVSVLTVLHQDWLNGKEYKCKVSNKALPLPEEKTISKAKGQPREPQVCTLPPSRDELTKNQVSLWCLVKGFYPSDIAVEWESNGQPENNYKTTPPVLDSDGSFFLYSKLTVDKSRWQQGNVFSCSVMHEALHNHYTQKSLSLSP
heavy 2: QDQLVQSGAEVKKPGASVKVSCKASGFNIKDTYIQWVRQAPGQGLEWMGRIDPLRKQTKYREKFEGRVTITADTSTNTAYMELSSLRSEDTAVYYCVRSGREFDYWGQGTLVTVSSASTKGPSVFPLAPSSKSTSGGTAALGCLVKDYFPEPVTVSWNSGALTSGVHTFPAVLQSSGLYSLSSVVTVPSSSLGTQTYICNVNHKPSNTKVDKKVEPKSCDKTHTCPPCPAPELLGGPDVFLFPPKPKDTLMISRTPEVTCVVVDVSHEDPEVKFNWYVDGVEVHNAKTKPREEQYNSTYRVVSVLTVLHQDWLNGKEYKCKVSNKALPLPEEKTISKAKGQPREPQVYTLPPSRCELTKNQVSLSCAVKGFYPSDIAVEWESNGQPENNYKTTPPVLDSDGSFFLVSKLTVDKSRWQQGNVFSCSVMHEALHNHYTQKSLSLSP
light: DIQMTQSPSSLSASVGDRVTITCRASQDIHKYIAWYQQKPGQAPRLLIQYTSTLQPGVPSRFSGSGSGTDYTFTISSLQPEDIATYYCLQYEQLRTFGGGTKVEIKRTVAAPSVFIFPPSDEQLKSGTASVVCLLNNFYPREAKVQWKVDNALQSGNSQESVTEQDSKDSTYSLSSTLTLSKADYEKHKVYACEVTHQGLSSPVTKSFNRGEC
notes: also called EGL-SDALIE; SDALIE
[13]
  A/I ratio (KD for FcγRIIb divided by KD for each FcγR): 2.2
[14]
  A/I ratio (KD for FcγRIIb divided by KD for each FcγR): 266
[15]
  A/I ratio (KD for FcγRIIb divided by KD for each FcγR): 98.7
[16]
  A/I ratio (KD for FcγRIIb divided by KD for each FcγR): 2.8
[17]
  Relative value to KD between G1d and hFcgRs: 1
[18]
  Relative value to KD between G1d and hFcgRs: 36.8
[19]
  Relative value to KD between G1d and hFcgRs: 113
[20]
  Relative value to KD between G1d and hFcgRs: 54.3
[21]
  Relative value to KD between G1d and hFcgRs: 3.9
[22]
  Relative value to KD between G1d and hFcgRs: 1.8
[23]
  Kd: 2590 nM
[24]
  Kd: 1180 nM
[25]
  Kd: 9.73 nM
[26]
  Kd: 26.2 nM
[27]
  Kd: 0.00166 nM
[28]
  Kd: 935 nM
